These results are taken from US20220348648A1 (published 2022).

What all share (assay): BLI (Octet HTX)
For orientation: Biolayer interferometry detects binding as a change in optical thickness at a sensor tip.

Test [1] deals with T1, Recombinant Human DLL3 Protein (amino acids Ala27-Ala479, Cat #9749-DL, R&D Systems) (UniProt Q9NYJ7 27-479).
T1 chain: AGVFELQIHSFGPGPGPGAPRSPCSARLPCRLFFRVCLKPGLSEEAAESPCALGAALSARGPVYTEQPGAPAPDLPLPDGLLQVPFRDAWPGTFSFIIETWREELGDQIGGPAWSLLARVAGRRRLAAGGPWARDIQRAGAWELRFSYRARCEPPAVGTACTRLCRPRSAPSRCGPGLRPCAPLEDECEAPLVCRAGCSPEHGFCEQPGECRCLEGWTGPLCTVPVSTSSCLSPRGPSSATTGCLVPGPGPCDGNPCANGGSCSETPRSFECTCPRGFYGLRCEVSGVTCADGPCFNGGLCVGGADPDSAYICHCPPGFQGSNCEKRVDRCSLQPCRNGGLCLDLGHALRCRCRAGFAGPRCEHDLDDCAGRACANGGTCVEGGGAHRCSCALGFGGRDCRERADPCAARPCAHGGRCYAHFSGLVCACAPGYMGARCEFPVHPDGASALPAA

For test [2], the target named is T1, Recombinant Human DLL3 Protein (amino …).
Test [3] has the same target.

Where two headings read alike, the source gives them in different places.

B1: 10-O18-A (antibody, V domains shown)
VH: QVQLQESGPGLVKPSETLSLTCTVSGGSINSYYWSWIRQPPGKGLEWIGYIFYSGITNYNPSLKSRVTISLDTSKNQFSLKLSSVTAADTAVYYCARIGVAGFYFDYWGQGTLVTVSS
VL: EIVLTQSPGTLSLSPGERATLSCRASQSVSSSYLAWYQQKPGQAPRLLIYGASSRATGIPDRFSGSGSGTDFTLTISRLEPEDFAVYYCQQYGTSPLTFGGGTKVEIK
As for B1, the Kd came to 0.602 nM in test [1] and 0.62 nM in test [2].

B2: 2-C8-A (antibody, V domains shown)
VH: EVQLVESGGGLVQPGGSQRLSCAASGFTFSSYWMNWVRQAPGKGLEWVANIKEDGSEKYYVDSVKGRFTISRDNAKNSLYLQMNSLRAEDTAVYYCARDPGWAPFDYWGQGTLVTVSS
VL: DIQMSQSPSSLSASVGDRVTITCRASQGISNYLAWFQQKPGKAPKSLIYAASSLQSGVPSKFSGSGSGTDFTLAISSLQPEDFATYYCQQYNSFPYTFGQGTTLEIK
In the case of B2, the Kd in test [1] and in test [2] was 0.668 nM throughout.

B3: 7-I1-B (antibody, V domains shown)
VH: EVQLVESGGGLVKPGGSLRLSCAASGFTFSNTWMSWVRQAPGKGLEWVGRIKSKSDGGTTDYAAPVKGRFTISRDDSKNTLYLQMNSLKTEDTAVYYCTQYYWNSFDYWGQGTLVTVSS
VL: not shown
Consider B3, for which the values for the Kd in test [3] and in test [2] were 0.686 nM and 0.68 nM, respectively.

B4: 6-G23-F (antibody, V domains shown)
VH: QVQLVQSGAEVKKPGASVKVSCKASGYTFTSYYIHWVRQAPGQGLEWMGIIDPSDGSTNYAQKFQGRVTMTRDTSTSTVYMELSSLRSEDTAVYYCARDREYNYYGLDVWGQGTTVTVSS
VL: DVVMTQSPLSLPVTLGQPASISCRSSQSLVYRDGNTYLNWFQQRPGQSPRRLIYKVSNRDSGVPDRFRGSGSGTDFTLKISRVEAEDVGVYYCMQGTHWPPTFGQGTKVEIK
Turning to B4, the Kd in test [3] and in test [2] was 0.16 nM each time.

What is called Kd is the equilibrium constant for the complex coming apart.
